Test results published in PMC11250841.

Tests used:
[1] = target: T1, Thymic stromal lymphopoietin receptor (TSLPR) (human (endogenous in primary keratinocytes)) (UniProt Q9HC73)
T1 sequence: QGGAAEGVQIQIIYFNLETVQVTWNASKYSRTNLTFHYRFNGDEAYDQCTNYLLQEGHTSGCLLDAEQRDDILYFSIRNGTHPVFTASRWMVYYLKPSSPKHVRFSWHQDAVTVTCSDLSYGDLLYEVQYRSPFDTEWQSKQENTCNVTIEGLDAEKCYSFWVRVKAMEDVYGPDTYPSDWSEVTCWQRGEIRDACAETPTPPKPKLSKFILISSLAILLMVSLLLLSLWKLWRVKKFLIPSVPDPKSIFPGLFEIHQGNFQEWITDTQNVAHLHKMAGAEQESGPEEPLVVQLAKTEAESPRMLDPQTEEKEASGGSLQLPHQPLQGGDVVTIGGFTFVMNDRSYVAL

[2] = target: T1, Thymic stromal lymphopoietin receptor (TSLPR) (human (endogenous in primary keratinocytes)); remark: listed apart in the source

Question: What does the source list for “Thymic stromal lymphopoietin (TSLP), human recombinant (from UniProt Q969D9 29-159) (ligand)”?
Answer: inhibition by the small molecule BP79 of TSLP-induced IL-4/IL-13 expression in primary human CD4+ T cells (ELISA, 36 h), dose-response, at 10 µM and 20 µM [1]: > 80%; inhibition by the small molecule BP79 of TSLP-induced IL-4 release from HuT78 cells (ELISA, 36 h), concentration series up to 20 µM [2]: 60%; inhibition by the small molecule BP79 of TSLP-induced IL-13 release from HuT78 cells (ELISA, 36 h), concentration series up to 20 µM [2]: 80%
